First the molecules themselves.
B1: CD38-M1-FES-3 (bispecific antibody)
chain: not shown
heavy: not shown
light: DIELTQPPSVSVAPGQTARISCSGDNLRHYYVYWYQQKPGQAPVLVIYGDSKRPSGIPERFSGSNSGNTATLTISGTQAEDEADYYCQTYTGGASLVFGGGTKLTVLGQGQPKAAPSVTLFPPSSEELQANKATLVCLISDFYPGAVTVAWKADSSPVKAGVETTTPSKQSNNKYAASSYLSLTPEQWKSHRSYSCQVTHEGSTVEKTVAPTECS
notes: structure 1; CD38 (MOR) x CD3 (I2C); CH2 FES; CL is Lc3
B2: CD38-M1-G2-2 (bispecific antibody, human IgG1, kappa)
chain: QVQLVESGGGVVQPGRSLRLSCAASGFTFSTYAMNWVRQAPGKGLEWVARIRSKYNNYATYYADSVKDRFTISRDDSKNTLYLQMNSLRAEDTAVYYCARHGNFGNSYVSWFAYWGQGTLVTVSSGGGGSGGGGSGGGGSQTVVTQEPSLTVSPGGTVTLTCRSSTGAVTTSNYANWVQQKPGQAPRGLIGGTNKRAPGVPARFSGSLLGGKAALTLSGVQPEDEAEYYCALWYSNLWVFGGGTKVEIKGRGRGSDKTHTCPPCPAPPVAGPSVFLFPPKPKDTLMISRTPEVTCVVVDVSHEDPEVQFNWYVDGVEVHNAKTKPREEQFNSTFRVVSVLTVVHQDWLNGKEYKCKVSNKGLPAPIEKTISKTKGQPREPQVCTLPPSRDELTKNQVSLSCAVKGFYPSDIAVEWESNGQPENNYKTTPPVLDSDGSFFLVSKLTVDKSRWQQGNVFSCSVMHEALHNHYTQKSLSLSPGK
heavy: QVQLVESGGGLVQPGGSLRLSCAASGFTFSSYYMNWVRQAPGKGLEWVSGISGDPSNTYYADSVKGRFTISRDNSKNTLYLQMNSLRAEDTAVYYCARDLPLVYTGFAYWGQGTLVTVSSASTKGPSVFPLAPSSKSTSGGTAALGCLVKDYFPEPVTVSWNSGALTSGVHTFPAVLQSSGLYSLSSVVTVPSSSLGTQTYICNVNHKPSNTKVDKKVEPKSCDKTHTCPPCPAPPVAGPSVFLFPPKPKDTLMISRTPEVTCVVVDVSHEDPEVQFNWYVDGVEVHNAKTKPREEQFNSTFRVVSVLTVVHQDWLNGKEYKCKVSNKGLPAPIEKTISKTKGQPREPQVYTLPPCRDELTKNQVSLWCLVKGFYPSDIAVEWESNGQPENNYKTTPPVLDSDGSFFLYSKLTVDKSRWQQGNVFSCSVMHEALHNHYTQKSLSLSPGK
light: DIELTQPPSVSVAPGQTARISCSGDNLRHYYVYWYQQKPGQAPVLVIYGDSKRPSGIPERFSGSNSGNTATLTISGTQAEDEADYYCQTYTGGASLVFGGGTKLTVLGQRTVAAPSVFIFPPSDEQLKSGTASVVCLLNNFYPREAKVQWKVDNALQSGNSQESVTEQDSKDSTYSLSSTLTLSKADYEKHKVYACEVTHQGLSSPVTKSFNRGEC
notes: structure 1; CD38 (MOR) x CD3; CH2 G2CH2
B3: CD38-M1-G2D-1 (bispecific antibody, human IgG1, kappa)
chain: B2 chain with D304A
heavy: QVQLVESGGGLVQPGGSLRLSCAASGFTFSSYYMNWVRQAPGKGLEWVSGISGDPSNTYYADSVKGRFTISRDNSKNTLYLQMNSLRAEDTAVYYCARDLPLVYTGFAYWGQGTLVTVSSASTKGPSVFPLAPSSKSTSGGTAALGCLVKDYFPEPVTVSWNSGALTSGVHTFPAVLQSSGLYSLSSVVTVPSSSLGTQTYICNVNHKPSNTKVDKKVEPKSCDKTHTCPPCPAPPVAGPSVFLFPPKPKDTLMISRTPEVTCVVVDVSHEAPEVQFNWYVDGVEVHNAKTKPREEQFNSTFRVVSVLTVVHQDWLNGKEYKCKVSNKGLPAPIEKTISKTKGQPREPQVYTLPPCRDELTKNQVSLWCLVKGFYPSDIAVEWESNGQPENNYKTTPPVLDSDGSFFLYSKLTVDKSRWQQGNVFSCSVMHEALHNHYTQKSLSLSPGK
light: B2 light
notes: structure 1; CD38 (MOR) x CD3; CH2 G2DCH2
B4: CD38-M1-SG2-2 (bispecific antibody, human IgG1, kappa)
chain: B2 chain with C264S
heavy: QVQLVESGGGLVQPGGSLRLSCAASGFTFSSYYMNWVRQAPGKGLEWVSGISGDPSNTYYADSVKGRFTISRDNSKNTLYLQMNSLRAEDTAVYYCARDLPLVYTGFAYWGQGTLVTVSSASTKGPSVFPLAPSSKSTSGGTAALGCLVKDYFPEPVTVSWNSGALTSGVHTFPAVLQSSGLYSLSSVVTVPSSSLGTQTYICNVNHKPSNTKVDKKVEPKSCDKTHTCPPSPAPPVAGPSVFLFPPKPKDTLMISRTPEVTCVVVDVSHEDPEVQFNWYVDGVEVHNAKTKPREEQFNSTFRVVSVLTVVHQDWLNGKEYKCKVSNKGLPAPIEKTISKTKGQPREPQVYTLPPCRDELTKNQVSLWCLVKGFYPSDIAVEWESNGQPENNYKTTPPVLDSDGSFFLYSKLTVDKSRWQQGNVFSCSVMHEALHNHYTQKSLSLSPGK
light: B2 light
notes: structure 1; CD38 (MOR) x CD3; CH2 SG2CH2
B5: M3IC-FES (bispecific antibody)
fusion heavy: EVKLDETGGGLVQPGRPMKLSCVASGFTFSDYWMNWVRQSPEKGLEWVAQIRNKPYNYETYYSDSVKGRFTISRDDSKSSVYLQMNNLRVEDMGIYYCTGSYYGMDYWGQGTSVTVSSASTKGPSVFPLAPSSKSTSGGTAALGCLVKDYFPEPVTVSWNSGALTSGVHTFPAVLQSSGLYSLSSVVTVPSSSLGTQTYICNVNHKPSNTKVDKKVEPKSCGGGGSGGGGSQVQLVESGGGVVQPGRSLRLSCAASGFTFSTYAMNWVRQAPGKGLEWVARIRSKYNNYATYYADSVKDRFTISRDDSKNTLYLQMNSLRAEDTAVYYCARHGNFGNSYVSWFAYWGQGTLVTVSSASVAAPSVFIFPPSDEQLKSGTASVVCLLNNFYPREAKVQWKVDNALQSGNSQESVTEQDSKDSTYSLSSTLTLSKADYEKHKVYACEVTHQGLSSPVTKSFNRGECDKTHTCPPCPAPEFEGGPSVFLFPPKPKDTLMISRTPEVTCVVVDVSHEDPEVKFNWYVDGVEVHNAKTKPREEQYNSTYRVVSVLTVLHQDWLNGKEYKCKVSNKALPASIEKTISKAKGQPREPQVYTLPPCRDELTKNQVSLWCLVKGFYPSDIAVEWESNGQPENNYKTTPPVLDSDGSFFLYSKLTVDKSRWQQGNVFSCSVMHEALHNHYTQKSLSLSPGK
cross light: QTVVTQEPSLTVSPGGTVTLTCRSSTGAVTTSNYANWVQQKPGQAPRGLIGGTNKRAPGVPARFSGSLLGGKAALTLSGVQPEDEAEYYCALWYSNLWVFGGGTKVEIKSSASTKGPSVFPLAPSSKSTSGGTAALGCLVKDYFPEPVTVSWNSGALTSGVHTFPAVLQSSGLYSLSSVVTVPSSSLGTQTYICNVNHKPSNTKVDKKVEPKSC
heavy: EVKLDETGGGLVQPGRPMKLSCVASGFTFSDYWMNWVRQSPEKGLEWVAQIRNKPYNYETYYSDSVKGRFTISRDDSKSSVYLQMNNLRVEDMGIYYCTGSYYGMDYWGQGTSVTVSSASTKGPSVFPLAPSSKSTSGGTAALGCLVKDYFPEPVTVSWNSGALTSGVHTFPAVLQSSGLYSLSSVVTVPSSSLGTQTYICNVNHKPSNTKVDKKVEPKSCDKTHTCPPCPAPEFEGGPSVFLFPPKPKDTLMISRTPEVTCVVVDVSHEDPEVKFNWYVDGVEVHNAKTKPREEQYNSTYRVVSVLTVLHQDWLNGKEYKCKVSNKALPASIEKTISKAKGQPREPQVCTLPPSRDELTKNQVSLSCAVKGFYPSDIAVEWESNGQPENNYKTTPPVLDSDGSFFLVSKLTVDKSRWQQGNVFSCSVMHEALHNRFTQKSLSLSPGK
light: DVVMTQTPLSLPVSLGDQASISCRSSQSLVHSNGNTYLRWYLQKPGQSPKVLIYKVSNRFSGVPDRFSGSGSGTDFTLKISRVEAEDLGVYFCSQSTHVPWTFGGGTKLEIKRTVAAPSVFIFPPSDEQLKSGTASVVCLLNNFYPREAKVQWKVDNALQSGNSQESVTEQDSKDSTYSLSSTLTLSKADYEKHKVYACEVTHQGLSSPVTKSFNRGEC
notes: structure 3 isotype control; CH2 FES; copies: 1 + 1 + 1 + 2
B6: M3IC-NA (bispecific antibody)
fusion heavy: B5 fusion heavy with F477L, E478L, N540A, S574P
cross light: B5 cross light
heavy: B5 heavy with F235L, E236L, N298A, S332P
light: B5 light
notes: structure 3 isotype control; CH2 N297A; copies: 1 + 1 + 1 + 2

Residue numbers refer to the chain shown, from its start. Names may count otherwise.

For one assay, the target named is T1, Monkey CD3 (monkey).
T1 construct: whole, on cells; also called CD3 of monkey CD3 positive T cells
Kind of assay: flow cytometry, monkey T cells.
Turning to B1, it took 34 nM to reach a half-maximal effect (EC50).
On the same count and under the same terms, as for B2, the figure is 491 nM; as for B3, 420 nM.
Molecule B4 registered an EC50 of 461 nM.

For the next assay, the target named is Human CD38 (human, UniProt P28907 43-300). Kind of assay: flow cytometry, MM.1S or RPMI 8226 cells. An excerpt: 1) Cell preparation: T cells isolated from CD3-positive human whole blood were used for a CD3 end affinity detection of multifunctional antibody molecule; positive tumor cells of corresponding antigen were used for detecting affinity of tumor antigen; for example, CD38-positive MM. 1S cells (purchased from the Cell Resource Center of Shanghai Institutes for Biological Sciences, Chinese Academy of Sciences) or RPMI 8226 cells (purchased from the Cell Resource Center of Shanghai Institutes for Biological Sciences, Chinese Academy of Sciences) were used for CD38 antigen detection, and PD-L1 positive H358 cells (purchased from the Cell Resource Center of Shanghai Institutes for Biological Sciences, Chinese Academy of Sciences) were used for PD-L1 antigen detection, and so on. The cells were resuspended with 1% FBS-PBS, adjusted to a density of 4×10⁶/ml, and 50 μl of cells were taken from each well, and then plated at 2×10⁵ per well. Cell plating was operated on ice
2) Addition of the antibody: according to the experimental design, the antibody was diluted gradually, and dilution of antibody was operated on ice. For example, the initial concentration of antibody for dilution was 3000 nM, and the antibody was diluted by 3 times with 11 concentration gradients. The diluted antibody was added to a cell well at 50 μl per well, mixed well, and shaked and incubated at 4° C. 1100 rpm/min for 2 h; after washing, the cells were resuspend in 1% FBS-PBS, and a diluted secondary antibody PE anti-human IgG FC (Biolegend, 409304) was added with a final concentration of 8 ug/ml and a volume of 50 μl/well. At the same time, a well only added with cells and secondary antibody was set as a control, the components were mixed well, and incubated under shaking at 1100 rpm/min at 4° C. for 1 h;
5) Data analysis: the data was analyzed by a flow analysis software FlowJo 7.6 thereby obtaining an average fluorescence intensity of the specific antibody concentration, plotted by a Graphpad Prism 5 with the antibody concentration (nM) as an abscissa and the average fluorescence intensity as an ordinate; the EC50 value was calculated by the method of One site—Specific binding, and the EC50 value indicated the cell affinity of the antibody to the corresponding target antigen.
Molecule B1 came in with an EC50 of 11.1 nM.
As to B2, the EC50 amounted to 104 nM.
Molecule B3 had an EC50 of 100 nM.
In turn, B4 returned an EC50 of 106 nM.

Another assay concerns the target T2, Human CD3ε (human, UniProt P07766 23-126).
T2 construct: CD3 on T cells isolated from human whole blood
Kind of assay: flow cytometry, human T cells. A digest of the protocol: (§1)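 Cells expressing the target antigen (CD38+ MM.1S or RPMI 8226 for CD38; isolated T cells for CD3) were plated at 2×10⁵ per well in 1% FBS-PBS on ice. Antibody was titrated 3-fold over 11 points from 3000 nM and incubated 2 h at 4° C with shaking, followed by PE anti-human IgG Fc.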
For orientation: In flow cytometry, cells or beads pass a laser one at a time.
Turning to B5, a half-maximal effect (EC50) was put at 662 nM.
With B6, the EC50 is 739 nM.
On the same count and under the same terms, as for B2, the figure is 478 nM; as for B3, 405 nM; as for B4, 437 nM.

The target of another assay is T1, Monkey CD3. Kind of assay: flow cytometry, monkey T cells. The source holds these as a separate data set.
As to B5, a half-maximal effect (EC50) was put at 671 nM.
Take B6: a half-maximal response (EC50) required 935 nM.

The next assay addresses T3, human CEA (human, UniProt P06731 35-685).
T3 sequence: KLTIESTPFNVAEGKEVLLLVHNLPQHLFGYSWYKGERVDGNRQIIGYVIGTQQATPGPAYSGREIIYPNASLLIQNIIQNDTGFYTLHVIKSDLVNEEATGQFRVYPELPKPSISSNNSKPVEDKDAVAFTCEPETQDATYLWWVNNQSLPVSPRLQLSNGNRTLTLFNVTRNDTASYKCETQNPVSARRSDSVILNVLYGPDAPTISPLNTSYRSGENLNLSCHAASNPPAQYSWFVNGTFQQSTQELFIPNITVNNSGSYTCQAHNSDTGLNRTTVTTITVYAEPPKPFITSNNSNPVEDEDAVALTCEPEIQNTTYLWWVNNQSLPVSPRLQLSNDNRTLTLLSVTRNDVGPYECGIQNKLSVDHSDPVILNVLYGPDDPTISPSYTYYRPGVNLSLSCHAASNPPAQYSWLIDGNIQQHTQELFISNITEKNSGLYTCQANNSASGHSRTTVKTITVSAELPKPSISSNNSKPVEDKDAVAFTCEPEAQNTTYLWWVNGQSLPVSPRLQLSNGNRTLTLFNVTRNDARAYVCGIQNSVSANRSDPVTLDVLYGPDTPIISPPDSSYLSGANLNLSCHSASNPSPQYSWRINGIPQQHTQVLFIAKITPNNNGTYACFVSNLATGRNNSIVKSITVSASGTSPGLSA
Kind of assay: flow cytometry, human tumor cells (table of the CEA series). Put shortly:
as §1
With B5, the binding result is “no binding”.
Same read-out and setting: as for B6, the entry is “no binding”.

In general, EC50 refers to the concentration giving half of the maximal effect.

Values taken from patent US20220098307A1 (WUHAN YZY BIOPHARMA, published 2022).
